Measured values taken from publication PMC3969020.
Substitutions are numbered along the chain they refer to. In names and notes the source's numbering stands.

B1: Horse liver alcohol dehydrogenase (ADH), E isoenzyme (Equus caballus; V208A) (protein)
chain: STAGKVIKCKAAVLWEEKKPFSIEEVEVAPPKAHEVRIKMVATGICRSDDHVVSGTLVTPLPVIAGHEAAGIVESIGEGVTTVRPGDKVIPLFTPQCGKCRVCKHPEGNFCLKNDLSMPRGTMQDGTSRFTCRGKPIHHFLGTSTFSQYTVVDEISVAKIDAASPLEKVCLIGCGFSTGYGSAVKVAKVTQGSTCAVFGLGGVGLSAIMGCKAAGAARIIGVDINKDKFAKAKEVGATECVNPQDYKKPIQEVLTEMSNGGVDFSFEVIGRLDTMVTALSCCQEAYGVSVIVGVPPDSQNLSMNPMLLLSGRTWKGAIFGGFKSKDSVPKLVADFMAKKFALDPLITHVLPFEKINEGFDLLRSGESIRTILTF
B2: Horse liver alcohol dehydrogenase (ADH), E isoenzyme (Equus caballus) (protein)
chain: B1 chain with A207V

Substrate: OCc1ccccc1
Assay: steady-state kinetics
Format: biochemical, Equus caballus
Settings: NAD+; catalytic zinc; 25.0 °C

Protein	Km
B1	13 ± 1 µM
B2	14 ± 1 µM
